{"source": "paper PMC2646901", "key": {"[1]": {"biological_target": "human C5a receptor (C5aR) (human) (UniProt P21730)", "sequence (P21730 whole entry)": "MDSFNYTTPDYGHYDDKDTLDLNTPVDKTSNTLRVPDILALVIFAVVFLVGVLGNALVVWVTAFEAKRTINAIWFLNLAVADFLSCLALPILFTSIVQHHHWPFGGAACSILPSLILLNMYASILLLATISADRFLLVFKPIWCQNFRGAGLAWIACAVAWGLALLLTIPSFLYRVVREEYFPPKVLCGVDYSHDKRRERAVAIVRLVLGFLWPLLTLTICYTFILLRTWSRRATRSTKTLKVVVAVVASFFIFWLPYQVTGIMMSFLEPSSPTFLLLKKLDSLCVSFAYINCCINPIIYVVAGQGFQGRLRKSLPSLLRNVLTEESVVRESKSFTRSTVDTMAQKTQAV"}, "[2]": {"biological_target": "formyl peptide receptor (FPR) (UniProt P21462)", "sequence (P21462 whole entry)": "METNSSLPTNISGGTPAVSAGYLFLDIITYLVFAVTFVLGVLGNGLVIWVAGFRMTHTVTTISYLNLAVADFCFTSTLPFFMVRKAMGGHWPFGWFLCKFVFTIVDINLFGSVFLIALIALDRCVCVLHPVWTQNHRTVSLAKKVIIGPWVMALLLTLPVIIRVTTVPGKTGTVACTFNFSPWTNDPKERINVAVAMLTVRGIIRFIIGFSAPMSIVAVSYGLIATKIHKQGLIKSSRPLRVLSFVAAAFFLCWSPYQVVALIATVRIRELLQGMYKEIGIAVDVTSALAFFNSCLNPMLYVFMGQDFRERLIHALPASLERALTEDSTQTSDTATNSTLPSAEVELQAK"}, "[3]": {"biological_target": "human C5a receptor (C5aR) (human) (UniProt P21730)", "assay": "flow cytometry on cells; competition: RBL cells transfected with human C5aR pre-treated with unlabelled CHIPS or human C5a, then 210 nM FITC-rCHIPS(28-149); cell-associated fluorescence"}, "[4]": {"biological_target": "human C5a receptor (C5aR) (human) (UniProt P21730)", "assay": "flow cytometry on cells; inhibition of ligand binding: transfected cells co-incubated with rCHIPS(28-149) and His6-C5a (50 nM), His6-C5a des Arg (50 nM) or FITC-formyl peptide (500 nM); 30 min at 4 °C in PBS + 0.1% BSA, 0.2% NaN3; His6 ligands detected with anti-RGSHis6 and anti-mouse IgG-FITC"}, "[5]": {"biological_target": "C5a-like receptor 2 (C5L2), the second C5a receptor (UniProt Q9P296)", "sequence (Q9P296 whole entry)": "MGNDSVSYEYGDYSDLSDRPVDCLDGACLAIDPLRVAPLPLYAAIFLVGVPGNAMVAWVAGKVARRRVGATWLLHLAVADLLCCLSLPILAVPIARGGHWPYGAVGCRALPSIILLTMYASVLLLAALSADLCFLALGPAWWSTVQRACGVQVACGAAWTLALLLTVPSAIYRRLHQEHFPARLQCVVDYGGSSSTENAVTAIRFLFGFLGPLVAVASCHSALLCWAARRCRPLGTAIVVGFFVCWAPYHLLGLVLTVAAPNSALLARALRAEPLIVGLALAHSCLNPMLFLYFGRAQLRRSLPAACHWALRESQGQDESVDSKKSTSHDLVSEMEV", "assay": "flow cytometry on cells; inhibition of ligand binding: transfected cells co-incubated with rCHIPS(28-149) and His6-C5a (50 nM), His6-C5a des Arg (50 nM) or FITC-formyl peptide (500 nM); 30 min at 4 °C in PBS + 0.1% BSA, 0.2% NaN3; His6 ligands detected with anti-RGSHis6 and anti-mouse IgG-FITC"}, "[6]": {"biological_target": "human C5a receptor (C5aR) (human) (UniProt P21730)", "assay": "flow cytometry on cells; kinetics: 300 nM FITC-CHIPS(28-149) added to C5aR-transfected RBL cells, dissociation started with 14 μM unlabelled CHIPS(28-149); Kd from kobs and koff, five experiments"}}, "data": [{"substance": "recombinant chemotaxis inhibitory protein of Staphylococcus aureus, residues 28-149 (rCHIPS_(28–149)) (from UniProt A6QIG7 28-149) (domain or fragment)", "values": [{"measurement": "inhibition of C5a-induced activation of C5aR on RBL cells (secretion of β-hexosaminidase); blocks C5a + C5aR", "setting": "[1]", "value": 2.44, "unit": "µM"}, {"measurement": "inhibition of formyl peptide-induced activation of FPR on RBL cells (secretion of β-hexosaminidase)", "setting": "[2]", "value": "> 1", "unit": "mM"}, {"measurement": "IC50", "setting": "[3]", "value": 69, "unit": "nM"}, {"measurement": "IC50", "setting": "[4]", "value": 6.7, "unit": "nM"}, {"measurement": "IC50", "setting": "[5]", "value": 274, "unit": "nM"}]}, {"substance": "rCHIPS_(30–141) (from UniProt A6QIG7 30-141) (domain or fragment)", "values": [{"measurement": "inhibition of FPR activation by formyl peptide on RBL cells (Schild plot); potency relative to rCHIPS(28-149)", "setting": "[2]", "value": 12, "unit": "fold"}]}, {"substance": "FITC-labelled recombinant CHIPS_(28–149) (from UniProt A6QIG7 28-149) (domain or fragment)", "values": [{"measurement": "t1/2 of association", "setting": "[6]", "value": 10.2, "unit": "s"}, {"measurement": "t1/2 of dissociation", "setting": "[6]", "value": 43.8, "unit": "s"}]}]}
